± gives the uncertainty stated by the source.
B1: CD2-associated protein, residues 1 to 59; numbered along this chain, Q9Y5K6 (parent)
chain: MVDYIVEYDYDAVHDDELTIRVGEIIRNVKKLQEEGWLEGELNGRRGMFPDNFVKEIKR

Variants of: B1
Experiment: abundance fitness (aPCA) (normalised: wild type 0, dead -1); higher = more abundant; growth selection in yeast, the domain comes from the species named
Settings: Homo sapiens

In order of falling abundance fitness:
1. MVDYIVEYDYDAVHDDELTIRVGEIIHNVKKLQEEGWLEGELNGRRGMFPDNFVKEIKR [R27H]  0.059 ± 0.069
2. MVDYIVEYDYDAVHDDELTIRVGEIIRDVKKLQEEGWLEGELNGRRGMFPDNFVKEIKR [N28D]  0.04 ± 0.091
3. MVDYIVEYDYDAVHDDELTIRVGEIITNVKKLQEEGWLEGELNGRRGMFPDNFVKEIKR [R27T]  -0.013 ± 0.079
4. MVDYIVEYDYDAVHDDELTIRVGEIIRGVKKLQEEGWLEGELNGRRGMFPDNFVKEIKR [N28G]  -0.025 ± 0.083
5. MVDYIVEYDYDAVHDDELTIRVGEIICNVKKLQEEGWLEGELNGRRGMFPDNFVKEIKR [R27C]  -0.038 ± 0.065
6. MVDYIVEYDYDAVHDDELTIRVGEIISNVKKLQEEGWLEGELNGRRGMFPDNFVKEIKR [R27S]  -0.064 ± 0.057
7. MVDYIVEYDYDAVHDDELTIRVGEIIENVKKLQEEGWLEGELNGRRGMFPDNFVKEIKR [R27E]  -0.081 ± 0.2
8. MVDYIVEYDYDAVHDDELTIRVGEIIVNVKKLQEEGWLEGELNGRRGMFPDNFVKEIKR [R27V]  -0.096 ± 0.076
9. MVDYIVEYDYDAVHDDELTIRVGEILRNVKKLQEEGWLEGELNGRRGMFPDNFVKEIKR [I26L]  -0.107 ± 0.085
10. MVDYIVEYDYDAVHDDELTIRVGEIIMNVKKLQEEGWLEGELNGRRGMFPDNFVKEIKR [R27M]  -0.133 ± 0.18
11. MVDYIVEYDYDAVHDDELTIRVGEIIQNVKKLQEEGWLEGELNGRRGMFPDNFVKEIKR [R27Q]  -0.147 ± 0.18
12. MVDYIVEYDYDAVHDDELTIRVGEIIGNVKKLQEEGWLEGELNGRRGMFPDNFVKEIKR [R27G]  -0.148 ± 0.092
13. MVDYIVEYDYDAVHDDELTIRVGEIIRQVKKLQEEGWLEGELNGRRGMFPDNFVKEIKR [N28Q]  -0.15 ± 0.12
14. MVDYIVEYDYDAVHDDELTIRVGEIIINVKKLQEEGWLEGELNGRRGMFPDNFVKEIKR [R27I]  -0.155 ± 0.066
15. MVDYIVEYDYDAVHDDELTIRVGEIINNVKKLQEEGWLEGELNGRRGMFPDNFVKEIKR [R27N]  -0.173 ± 0.075
16. MVDYIVEYDYDAVHDDELTIRVGEIIRSVKKLQEEGWLEGELNGRRGMFPDNFVKEIKR [N28S]  -0.176 ± 0.076
17. MVDYIVEYDYDAVHDDELTIRVGEIVRNVKKLQEEGWLEGELNGRRGMFPDNFVKEIKR [I26V]  -0.177 ± 0.13
18. MVDYIVEYDYDAVHDDELTIRVGEIIREVKKLQEEGWLEGELNGRRGMFPDNFVKEIKR [N28E]  -0.185 ± 0.095
19. MVDYIVEYDYDAVHDDELTIRVGEIIFNVKKLQEEGWLEGELNGRRGMFPDNFVKEIKR [R27F]  -0.195 ± 0.057
20. MVDYIVEYDYDAVHDDELTIRVGEIIRHVKKLQEEGWLEGELNGRRGMFPDNFVKEIKR [N28H]  -0.206 ± 0.14
21. MVDYIVEYDYDAVHDDELTIRVGEIILNVKKLQEEGWLEGELNGRRGMFPDNFVKEIKR [R27L]  -0.208 ± 0.086
22. MVDYIVEYDYDAVHDDELTIRVGEIIRCVKKLQEEGWLEGELNGRRGMFPDNFVKEIKR [N28C]  -0.215 ± 0.13
23. MVDYIVEYDYDAVHDDELTIRVGEIIANVKKLQEEGWLEGELNGRRGMFPDNFVKEIKR [R27A]  -0.228 ± 0.079
24. MVDYIVEYDYDAVHDDELTIRVGEIIRKVKKLQEEGWLEGELNGRRGMFPDNFVKEIKR [N28K]  -0.262 ± 0.093
25. MVDYIVEYDYDAVHDDELTIRVGEIIKNVKKLQEEGWLEGELNGRRGMFPDNFVKEIKR [R27K]  -0.283 ± 0.35
26. MVDYIVEYDYDAVHDDELTIRVGEIIYNVKKLQEEGWLEGELNGRRGMFPDNFVKEIKR [R27Y]  -0.291 ± 0.075
27. MVDYIVEYDYDAVHDDELTIRVGEIIRAVKKLQEEGWLEGELNGRRGMFPDNFVKEIKR [N28A]  -0.387 ± 0.093
28. MVDYIVEYDYDAVHDDELTIRVGEIIRNSKKLQEEGWLEGELNGRRGMFPDNFVKEIKR [V29S]  -0.448 ± 0.2
29. MVDYIVEYDYDAVHDDELTIRVGEIIRFVKKLQEEGWLEGELNGRRGMFPDNFVKEIKR [N28F]  -0.516 ± 0.12
30. MVDYIVEYDYDAVHDDELTIRVGEICRNVKKLQEEGWLEGELNGRRGMFPDNFVKEIKR [I26C]  -0.517 ± 0.13
31. MVDYIVEYDYDAVHDDELTIRVGEIIRTVKKLQEEGWLEGELNGRRGMFPDNFVKEIKR [N28T]  -0.615 ± 0.14
32. MVDYIVEYDYDAVHDDELTIRVGEIARNVKKLQEEGWLEGELNGRRGMFPDNFVKEIKR [I26A]  -0.636 ± 0.32
33. MVDYIVEYDYDAVHDDELTIRVGEIIRLVKKLQEEGWLEGELNGRRGMFPDNFVKEIKR [N28L]  -0.734 ± 0.11
34. MVDYIVEYDYDAVHDDELTIRVGEIWRNVKKLQEEGWLEGELNGRRGMFPDNFVKEIKR [I26W]  -0.743 ± 0.23
35. MVDYIVEYDYDAVHDDELTIRVGWIIRNVKKLQEEGWLEGELNGRRGMFPDNFVKEIKR [E24W]  -0.764 ± 0.18
36. MVDYIVEYDYDAVHDDELTIRVGEISRNVKKLQEEGWLEGELNGRRGMFPDNFVKEIKR [I26S]  -0.79 ± 0.29
37. MVDYIVEYDYDAVHDDELTIRVGEIIDNVKKLQEEGWLEGELNGRRGMFPDNFVKEIKR [R27D]  -0.838 ± 0.18
38. MVDYIVEYDYDAVHDDELTIRVGEIIRWVKKLQEEGWLEGELNGRRGMFPDNFVKEIKR [N28W]  -0.892 ± 0.28
39. MVDYIVEYDYDAVHDDELTIRVGEIRRNVKKLQEEGWLEGELNGRRGMFPDNFVKEIKR [I26R]  -0.894 ± 0.17
40. MVDYIVEYDYDAVHDDELTIRVGEIIRPVKKLQEEGWLEGELNGRRGMFPDNFVKEIKR [N28P]  -0.909 ± 0.23
41. MVDYIVEYDYDAVHDDELTIRVGEIGRNVKKLQEEGWLEGELNGRRGMFPDNFVKEIKR [I26G]  -0.926 ± 0.26
42. MVDYIVEYDYDAVHDDELTIRVGEIIRVVKKLQEEGWLEGELNGRRGMFPDNFVKEIKR [N28V]  -0.927 ± 0.14
43. MVDYIVEYDYDAVHDDELTIRVGVIIRNVKKLQEEGWLEGELNGRRGMFPDNFVKEIKR [E24V]  -0.94 ± 0.24
44. MVDYIVEYDYDAVHDDELTIRVGEINRNVKKLQEEGWLEGELNGRRGMFPDNFVKEIKR [I26N]  -0.988 ± 0.33
45. MVDYIVEYDYDAVHDDELTIRVGEIIRNKKKLQEEGWLEGELNGRRGMFPDNFVKEIKR [V29K]  -0.999 ± 0.28

From the Human Domainome abundance scans (Beltran et al. 2025)
